One experiment concerns the target Dsor1 (D-MEK) (Drosophila, UniProt Q24324). The experiment is described as follows: yeast two-hybrid.
For another experiment, the target named is Drosophila Ras1 (Drosophila, UniProt P08646). Nature of the experiment: yeast two-hybrid system or bacterially-expressed fusion proteins.

Here are results for one molecule from patent US5747275, “Protein kinase required for RAS signal transduction” (The Regents of the University of California, dated 1998).

B1: Drosophila melanogaster kinase suppressor of ras (Ksr) (enzyme)
chain: MSSNNNAPASAPDTGSTNANDPISGSLSVDSNLVIIQDMIDLSANHLEGLRTQCAISSTLTQQEIRCLESKLVRYFSELLLAKMRLNERIPANGLVPHTTGNELRQWLRVVGLSQGTLTACLARLTTLEQSLRLSDEEIRQLLADSPSQREEEELRRLTRAMQNLRKCMESLESGTAASNNDPEQWHWDSWDRPTHIHRGSVGNIGLGNNSTASPRTHHRQHGVKGKNSALANSTNFKSGRQSPSATEELNSTQGSQLTLTLTPSPPNSPFTPSSGLSSSLNGTPQRSRGTPPPARKHQTLLSQSHVQVDGEQLARNRLPTDPSTDSHSSTSSDIFVDPNTNASSGGSSSNVLMVPCSPGVGHVGMGHAIKHRFTKALGFMATCTLCQKQVFHRWMKCTDCKYICHKSCAPHVPPSCGLPREYVDEFRHIKEQGGYASLPHVHGAAKGSPLVKKSTLGKPLHQQHGDSSSPSSSCTSSTPSSPALFQQRERELDQAGSSSSANLLPTPSLGKHQPSQFNFPNVTVTSSGGSGGVSLISNEPVPEQFPTAPATANGGLDSLVSSSNGHMSSLIGSQTSNASTAATLTGSLVNSTTTTSTCSFFPRKLSTAGVDKRTPFTSECTDTHKSNDSDKTVSLSGSASTDSDRTPVRVDSTEDGDSGQWRQNSISLKEWDIPYGDLLLLERIGQGRFGTVHRALWHGDVAVKLLNEDYLQDEHMLETFRSEVANFKNTRHENLVLFMGACMNPPYLAIVTSLCKGNTLYTYIHQRREKFAMNRTLLIAQQIAQGMGYLHAREIIHKDLRTKNIFIENGKVIITDFGLFSSTKLLYCDMGLGVPHNWLCYLAPELIRALQPEKPRGECLEFTPYSDVYSFGTVWYELICGEFTFKDQPAESIIWQVGRGMKQSLANLQSGRDVKDLLMLCWTYEKEHRPQFARLLSLLEHLPKKRLARSPSHPVNLSRSAESVF
Consider B1, for which the binding result in the experiment with Dsor1 (D-MEK) and with Drosophila Ras1 was “no binding” each time.
